Laboratory results taken from the supplement of paper PMC10126150.
± gives the standard deviation of the averaged measurements.

Tested on: ATP
Assay: switch fluorescence ratio, 500 uM ATP over buffer (Cy3 cluster intensity, sum of 5 cycles each) (fold (ratio)); higher = stronger signal-on switching upon ATP binding; sequences stand for … in TCGTCGGCAGCGTCAGATGTGTATAAGAGACAGTTTTTTTTTTTTTTTTTTTTTTTTT…TC
Settings: aptamer strand: ATP DNA aptamer (quencher-CACCTGGGGGAGTATTGCGGAGGAAGG + anchor), 100 nM annealed; ATP concentration: 500 uM
Method in brief: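 Between each of five buffer/ATP cycles, the flow-cell was stripped with NaOH and re-annealed. Each cycle imaged Cy3-labelled switching-strand clusters, annealed to 100 nM quencher-labelled ATP aptamer on a modified Illumina MiSeq flow-cell, first in selection buffer and then after 15 min with 500 uM ATP at 22 °C. The fluorescence ratio is summed target-cycle over summed buffer-cycle Cy3 intensity per cluster, averaged per switch-domain sequence, with clusters outside 100-1000 RFU excluded.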
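Further: ATP exposure 15 min at 22 °C before imaging.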

In order of rising switch fluorescence ratio:
1. TAGTGAGGCG  0.926 ± 0.0095
2. CAGGGCGGGA  0.936 ± 0.028
3. GACTCTATGG  0.943 ± 0.11
4. CAGGGCGTGG  0.948 ± 0.038
5. CGTTATTGAG  0.95 ± 0.016
6. GGGGGCTTGA  0.954 ± 0.022
7. CATCGTATGG  0.954 ± 0.022
8. TGTCGTTATT  0.9546 ± 0.0018
9. CGACTTTTAG  0.959 ± 0.021
10. TAGTTGGGCT  0.961 ± 0.032
11. TGGGGGTCAC  0.9632 ± 0.0067
12. GCGGGTATGA  0.964 ± 0.052
13. TTATAGAGTT  0.9649 ± 0.0032
14. TCCCTTTGGG  0.971 ± 0.038
15. ATATTGCTGG  0.9724 ± 0.0085
16. GGGTATAGTA  0.973 ± 0.044
17. TCGGCGGCGG  0.974 ± 0.027
18. ATGGAAAGAA  0.974 ± 0.038
19. GGGACGGGTT  0.974 ± 0.029
20. GGAGAGGCAG  0.975 ± 0.026
21. TTCTTATTGT  0.975 ± 0.019
22. TGGTTTTGGA  0.976 ± 0.056
23. GCAAAGTGGA  0.9773 ± 0.0047
24. TTGGACTCTT  0.977 ± 0.038
25. CCGGTAGGCC  0.978 ± 0.033
26. AGGAAACGGG  0.978 ± 0.018
27. CTATAAAGTT  0.979 ± 0.024
28. GGTAGAATTA  0.979 ± 0.032
29. CAAACATTTT  0.9795 ± 0.0044
30. AAACTAGCGC  0.981 ± 0.015
31. GGGGGAGCAG  0.9812 ± 0.0084
32. TATTGAGGGT  0.981 ± 0.034
33. AAATTCGAAG  0.982 ± 0.011
34. TATGTCTTAT  0.983 ± 0.027
35. TATAGGTCAG  0.985 ± 0.011
36. TGTGTATTGT  0.985 ± 0.031
37. TAGGTTCGAG  0.985 ± 0.011
38. TCATTGGTT  0.985 ± 0.021
39. ATCGGCGGGA  0.986 ± 0.01
40. TTCGTCAGTG  0.986 ± 0.013
41. AAAAGTTATT  0.986 ± 0.027
42. AAGGGGTAGG  0.986 ± 0.036
43. TGGGTTGAGT  0.987 ± 0.017
44. TGTTTCCATG  0.988 ± 0.016
45. TCGAGTTGTT  0.988 ± 0.021
46. AAGCCGTGTG  0.988 ± 0.042
47. TTCTCGGGTT  0.99 ± 0.023
48. ATAGGCCAG  0.9898 ± 0.0067
49. CCATTGTGTG  0.98955 ± 0.00067
50. ACGTTGGGCA  0.99 ± 0.014
51. GAAAAATTTC  0.99 ± 0.028
52. GGTTTAAGTT  0.99 ± 0.03
53. GGTATGATGG  0.991 ± 0.01
54. TTTTTGTCAT  0.9912 ± 0.0094
55. AAATGGGGGA  0.991 ± 0.04
56. CCAGTTGATA  0.991 ± 0.032
57. TGCGGGCAAG  0.992 ± 0.015
58. TAATGATTTC  0.992 ± 0.011
59. TTCTCGGGCT  0.994 ± 0.031
60. ATAGTAAAGG  0.994 ± 0.031
61. GTAGGAAGTG  0.9935 ± 0.0091
62. ATAAGAGGAG  0.995 ± 0.022
63. CAAGTCTAGA  0.995 ± 0.026
64. GTTTGCCTCT  0.995 ± 0.012
65. GGTTTTTGTA  0.995 ± 0.025
66. TGGGGTATTT  0.997 ± 0.04
67. TCATGGTTGG  0.997 ± 0.028
68. AGTGCTGTGC  0.997 ± 0.012
69. AACGGATCGG  0.998 ± 0.025
70. TGCTCGGTTT  0.998 ± 0.045
71. AGGTAGAATG  0.998 ± 0.0045
72. GAACATTGGT  0.998 ± 0.042
73. AGGCAGATGG  0.998 ± 0.021
74. ATGTTAAAGG  0.998 ± 0.016
75. AACTGCTGTA  0.999 ± 0.02
76. AATACATCGG  0.999 ± 0.022
77. GGGGGATTGG  0.999 ± 0.032
78. AAAAGGTTGT  0.999 ± 0.038
79. GTGTTCTCGC  0.999 ± 0.05
80. GATGTAGGGG  0.999 ± 0.024
81. TTGGGTTGAG  0.999 ± 0.016
82. AGTCATTTTA  0.999 ± 0.028
83. TGCGTTATTA  0.999 ± 0.017
84. CGGTGGCTTC  1.003 ± 0.0026
85. TTATTGGAAT  1 ± 0.063
86. TATCGTAGGG  1 ± 0.022
87. TATGTATTCT  1 ± 0.017
88. TACATGATGG  1 ± 0.035
89. GGGCGCCTAA  1 ± 0.046
90. GGTGGAGATC  1 ± 0.051
91. GCGAGGGATG  1.002 ± 0.0043
92. AATGCCAAGG  1 ± 0.03
93. GTGATAGGGA  1 ± 0.013
94. CGGGGGAGCG  1 ± 0.045
95. AAAGAGCGTA  1 ± 0.029
96. GGGTTAGAAA  1 ± 0.043
97. GGTTTTGTTT  0.9996 ± 0.0075
98. TGTTGCGAAA  1 ± 0.025
99. TATTAGTTGC  1 ± 0.034
100. AGGGTCCGAG  1.001 ± 0.0045
101. TGTGAGAGGG  1 ± 0.019
102. GATATATTCG  1 ± 0.016
103. GTATTTCATA  1.01 ± 0.0031
104. CTTTTACTCG  1.01 ± 0.073
105. TATGTTAGTT  1.01 ± 0.019
106. GGTTACGGGG  1.01 ± 0.013
107. GCGGAATGGG  1.01 ± 0.019
108. CGTGTCCGGT  1.01 ± 0.043
109. CGAGGGAGCA  1.01 ± 0.025
110. CTTAGGGTAG  1.01 ± 0.019
111. AATCGGCTGG  1.01 ± 0.011
112. GGATGCAAAG  1.01 ± 0.013
113. CGAACTTGTG  1.01 ± 0.015
114. CAGGGGGTTT  1.01 ± 0.044
115. GGGGGGGATT  1.01 ± 0.025
116. CTGACCGGGT  1.014 ± 0.0015
117. AGAGATACTT  1.01 ± 0.035
118. CTTATAGACT  1.01 ± 0.011
119. GCTGGTATAT  1.01 ± 0.016
120. TGGGGGAGAG  1.01 ± 0.03
121. TGGGGGCAGG  1.01 ± 0.047
122. TGGCGTGTTA  1.02 ± 0.044
123. TGGGTGTGGG  1.02 ± 0.028
124. CGTAAACTTG  1.02 ± 0.023
125. ACGGCGTCGC  1.02 ± 0.026
126. TTTCGGTTTG  1.02 ± 0.047
127. TTGTTCTCGC  1.02 ± 0.048
128. AGGCCGAGTC  1.02 ± 0.054
129. ATCGTTTCGT  1.02 ± 0.019
130. CTATTGGGTT  1.02 ± 0.016
131. ACTGTCCCGT  1.019 ± 0.0029
132. GGTCGGGGTT  1.02 ± 0.034
133. TGACGGCGGA  1.02 ± 0.023
134. GAAATAATGG  1.03 ± 0.041
135. AATTAGGGTA  1.03 ± 0.012
136. TGGGGGATTC  1.03 ± 0.067
137. GCATTCTCGT  1.029 ± 0.0021
138. CAGGTTGGGG  1.03 ± 0.054
139. TTGGGTACGG  1.03 ± 0.016
140. TTTTACTAGA  1.032 ± 0.0059
141. TACGTTGGCA  1.03 ± 0.035
142. CTTACGGGCA  1.03 ± 0.033
143. TCACTTATGG  1.03 ± 0.033
144. GAAGAATTAA  1.0278 ± 0.00043
145. TCTGTAGGTT  1.03 ± 0.024
146. AGGAGCTTGA  1.03 ± 0.018
147. TTTTTGGTGC  1.04 ± 0.03
148. TGTGGTGGGT  1.042 ± 0.0097
149. GTCGGGGAGG  1.04 ± 0.031
150. GGGGGATACT  1.04 ± 0.037
151. TTTCAGAGAA  1.04 ± 0.049
152. AGTTAGGTGT  1.04 ± 0.044
153. TCACAGTCTA  1.04 ± 0.058
154. TCTTATGGAA  1.04 ± 0.047
155. ACATATAGGG  1.04 ± 0.021
156. GCTTTGGATA  1.04 ± 0.055
157. ACTAAAAATT  1.05 ± 0.04
158. GTTGGCATTT  1.05 ± 0.092
159. TATTTACGCT  1.05 ± 0.025
160. TTAACCAGCA  1.05 ± 0.032
161. TTGGGGCGGT  1.05 ± 0.15
162. GGATGCTTGG  1.05 ± 0.021
163. TATTTGGGCG  1.053 ± 0.0059
164. ATATGCTCAC  1.05 ± 0.03
165. GCAGTCCGTC  1.06 ± 0.019
166. TTCAAGGGGA  1.06 ± 0.13
167. AAGAAATTAC  1.06 ± 0.028
168. AGAGCTGCCT  1.06 ± 0.042
169. GCCCTTAGCG  1.06 ± 0.073
170. GGCATTACTG  1.06 ± 0.025
171. ACTGTAAGTC  1.06 ± 0.026
172. TTTAGCGACG  1.069 ± 0.0098
173. GGATTTCATG  1.07 ± 0.12
174. AAGTCCTGGA  1.07 ± 0.13
175. TAAGCTGGAG  1.07 ± 0.14
176. CGGAACCACG  1.08 ± 0.045
177. GAATAGGGTG  1.08 ± 0.039
178. GCGAGAAATC  1.08 ± 0.019
179. TGCTATGGC  1.09 ± 0.092
180. GAGGTTCATT  1.09 ± 0.085
181. GCGGAGCATG  1.1036 ± 0.00099
182. TTTCTTCCCT  1.13 ± 0.11
183. TGCACCAGGA  1.13 ± 0.067
184. TAAACGTATT  1.14 ± 0.13
185. TTTCCTTTTT  1.15 ± 0.36
186. TGTGAGCAGG  1.15 ± 0.044
187. ACATTCGCGC  1.148 ± 0.0066
188. GCGCTTGAAC  1.15 ± 0.051
189. TCCTTCACCT  1.24 ± 0.069
190. AAAACAAACT  1.26 ± 0.38
191. GCCGCAGTTT  1.31 ± 0.18
192. TTTACCCACT  1.46 ± 0.073
193. GTTAACTAAT  1.57 ± 0.85
194. GACTTCGAAA  1.63 ± 0.028
195. CATCCGTGGG  1.75 ± 0.085
196. ATTACGTACT  1.77 ± 0.11
197. CTTACGGCAC  1.82 ± 0.062
198. GACGAGGCAG  2.27 ± 0.21
199. ACGTAGCATG  2.46 ± 0.45
200. CCCCAAGCAG  2.497 ± 0.0041
